Target: T1, wild-type Met1-linked di-ubiquitin (UniProt P0CG48 1-76; P0CG48 1-76)
T1 construct: ubiquitin, first moiety of the linear fusion (residues 1-76 of the di-ubiquitin); ubiquitin, second moiety of the linear fusion (residues 77-152 of the di-ubiquitin); In the crystal each di-ubiquitin bridges two SnOTU molecules: residues 1-76 lie in the S1' site of one SnOTU and residues 77-152 in the S1 site of the other; also called linear di-ubiquitin; M1-linked di-ubiquitin; source: expressed …
Test: crystal structure; catalytic inactive SnOTU 1-255 and linear di-ubiquitin mixed in a 1:1.1 ratio; sitting drop vapor diffusion, 4 °C; 0.25 M magnesium formate, 20% w/v PEG 3350, 0.02 M EDTA disodium salt
Conditions: both partners purified

B1: catalytically inactivated (C82A) fragment SnOTU 1-255 (domain or fragment)
chain: MSLPVKERPDAIYTFEGKTYENTSFSKTGIPIVGQPLKMEAYVHKEYTHVTSLEGKRFKSQLEEAAKIYGEQLHEIQGDGNALTTAFATSFLYLLNGNATLIATFDNILIGLDAHKNIPPVRQTIEKLKVKNDLELKQILASNETMFAFSSVIRHLARQKLPELGEPFSLLIDEMVPEEDGKEIEIACIGGLCQLLNICADVIYLRKDYDTFKIERYPNETGKPDLVILRKAAHFLSIILDSKKSIEERTNELGK
notes: resolved from residues 2 to 242 in PDB 8CMR; Amplified from S. negevensis genomic DNA (DSM No.27360), cloned into pOPIN-S; source: E. coli Rosetta (DE3) pLysS, purified (HisTrap FF, tag removal, SEC); not shown: His6, N-terminal, cleaved; Smt3, N-terminal, cleaved
  binding result: binds

Source: publication PMC10643670, “Functional and structural diversity in deubiquitinases of the Chlamydia-like bacterium Simkania negevensis” (Nature Communications, 2023)
